Data on three molecules can be found in US20260258117A1 (ACADEMISCH ZIEKENHUIS LEIDEN H O D N LUMC, published 2026).

Experiment [1] addresses T1, C4b-binding protein (human, UniProt P04003 49-597; P20851 18-252).
T1 construct: also called C4BP
T1 sequence (looked up) 1: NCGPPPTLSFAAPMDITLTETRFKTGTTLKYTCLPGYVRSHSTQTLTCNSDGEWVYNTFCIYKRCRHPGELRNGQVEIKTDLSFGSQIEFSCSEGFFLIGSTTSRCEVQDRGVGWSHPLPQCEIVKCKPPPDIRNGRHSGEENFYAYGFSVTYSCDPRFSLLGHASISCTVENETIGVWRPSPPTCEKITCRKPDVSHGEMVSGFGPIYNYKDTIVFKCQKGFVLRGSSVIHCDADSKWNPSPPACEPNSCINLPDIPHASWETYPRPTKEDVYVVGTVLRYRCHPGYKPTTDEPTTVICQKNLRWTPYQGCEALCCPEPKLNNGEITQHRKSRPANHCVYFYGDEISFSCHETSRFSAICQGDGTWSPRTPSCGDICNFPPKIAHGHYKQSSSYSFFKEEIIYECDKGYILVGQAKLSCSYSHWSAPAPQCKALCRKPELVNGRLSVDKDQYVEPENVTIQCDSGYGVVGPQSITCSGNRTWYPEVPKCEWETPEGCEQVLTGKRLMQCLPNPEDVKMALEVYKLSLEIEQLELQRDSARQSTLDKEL
T1 sequence (looked up) 2: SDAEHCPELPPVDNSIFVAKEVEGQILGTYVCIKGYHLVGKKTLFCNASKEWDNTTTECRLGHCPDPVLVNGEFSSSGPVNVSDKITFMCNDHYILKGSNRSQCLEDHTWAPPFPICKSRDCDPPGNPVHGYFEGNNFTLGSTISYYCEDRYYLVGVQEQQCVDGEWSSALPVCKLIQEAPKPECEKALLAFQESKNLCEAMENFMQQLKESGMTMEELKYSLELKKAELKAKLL
The experiment in a line: bispecific ELISA: BSA-DNP coat, antibody, then C4BP, C4BP detected. Here is the method:
(§1) BsAbs were tested for binding to both antigens in a bispecific ELISA. MaxiSorp plates (Thermo Scientific, Nunc, 430341) were coated with 50 μL/well BSA-DNP (10 μg/mL, Biosearch Technologies, D-5050-10, conjugation ration 13) in coating buffer (0.1 M Na₂CO₃/NaHCO₃PH 9.6) for 1 hour at 37° C. After every incubation, plates were washed three times with PBS/0.05% Tween 20. Plates were blocked with 100 μL/well PBS/1% BSA for 1 hour at 37° C. After washing, plates were incubated with 50 μL/well (bs) Abs diluted in PBS/0.05% Tween 20/1% BSA (PTB buffer) for 1 hour at 37° C. Next, 1 μg/mL FH (CompTech, A137) or C4BP (CompTech, A109) diluted in PTB buffer was added. FH was detected using goat anti-human FH (Quidel, A312) and HRP-labeled rabbit anti-goat Ig (Dako, P0449), and C4BP was detected using rabbit anti-human C4BP (kind gift from Anna M. Blom, Malmö, Sweden) and HRP-labeled goat anti-rabbit Ig (Dako, P0448), all diluted in PTB buffer. Plates were developed by incubating with 50 μL/well ABTS (Merck, A1888-5G) containing 1:2000 diluted H₂O₂ (Merck, 1072090250), and read at 415 nm using a microplate reader (BIO-RAD iMark). It was confirmed by ELISA that the bsAbs can bind to a specific target (e.g., DNP as a model antigen) as well as FH or C4BP, whereas the parental monospecific antibodies cannot (FIG. 1A).

The target in experiment [2] is T2, Complement Factor H protein (human, UniProt P08603 19-1231).
T2 construct: Plasma protein, bought purified or present in normal human serum; also called FH; CFH
The experiment in a line: bispecific ELISA: BSA-DNP coat, antibody, then FH, FH detected. Here is the method:
as §1
(In general: ELISA stands for enzyme-linked immunosorbent assay.)

Experiment [3] concerns the target T1, C4b-binding protein. The experiment in a line: bispecific ELISA. Here is the method:
as §1

For experiment [4], the target named is T2, Complement Factor H protein. Briefly: bispecific ELISA and complement activation assay on biotinylated BSA-DNP, FH detected.

T2 sequence (P08603 19-1231 limits assumed): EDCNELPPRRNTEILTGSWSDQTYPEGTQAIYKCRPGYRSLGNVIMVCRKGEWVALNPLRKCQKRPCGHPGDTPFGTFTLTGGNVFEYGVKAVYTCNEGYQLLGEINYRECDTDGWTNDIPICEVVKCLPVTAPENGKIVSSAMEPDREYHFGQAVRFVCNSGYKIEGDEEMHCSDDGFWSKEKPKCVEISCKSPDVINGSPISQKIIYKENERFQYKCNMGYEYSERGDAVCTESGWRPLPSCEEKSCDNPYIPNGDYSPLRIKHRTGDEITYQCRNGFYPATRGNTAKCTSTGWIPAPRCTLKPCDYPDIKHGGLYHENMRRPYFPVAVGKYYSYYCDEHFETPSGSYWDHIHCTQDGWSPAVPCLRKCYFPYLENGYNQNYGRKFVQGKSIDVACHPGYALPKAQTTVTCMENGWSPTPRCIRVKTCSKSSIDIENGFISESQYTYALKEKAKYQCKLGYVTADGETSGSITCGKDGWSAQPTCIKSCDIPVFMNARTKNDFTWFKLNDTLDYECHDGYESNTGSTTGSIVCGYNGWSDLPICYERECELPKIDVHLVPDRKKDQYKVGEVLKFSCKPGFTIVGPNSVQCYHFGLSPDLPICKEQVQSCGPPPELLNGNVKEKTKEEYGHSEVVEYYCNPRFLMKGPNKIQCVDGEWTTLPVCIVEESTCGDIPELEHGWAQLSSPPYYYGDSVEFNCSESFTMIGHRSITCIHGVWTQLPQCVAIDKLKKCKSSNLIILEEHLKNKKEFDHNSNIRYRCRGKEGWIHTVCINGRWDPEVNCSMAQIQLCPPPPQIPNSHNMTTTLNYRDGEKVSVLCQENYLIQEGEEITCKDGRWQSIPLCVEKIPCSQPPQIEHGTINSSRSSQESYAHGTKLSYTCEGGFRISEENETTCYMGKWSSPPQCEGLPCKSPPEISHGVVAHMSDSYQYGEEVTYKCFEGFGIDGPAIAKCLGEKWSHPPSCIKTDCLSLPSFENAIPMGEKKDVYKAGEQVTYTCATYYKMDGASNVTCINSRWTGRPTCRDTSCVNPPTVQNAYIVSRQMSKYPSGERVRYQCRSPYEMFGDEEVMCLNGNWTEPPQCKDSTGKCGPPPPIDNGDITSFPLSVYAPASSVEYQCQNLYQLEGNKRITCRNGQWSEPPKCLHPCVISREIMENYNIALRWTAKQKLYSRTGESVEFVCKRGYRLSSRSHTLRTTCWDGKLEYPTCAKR

B1: Anti-DNP K409R LALAPG (antibody, human IgG1, kappa, L234A L235A, V domains shown)
VH: DVRLQESGPGLVKPSQSLSLTCSVTGYSITNSYYWNWIRQFPGNKLEWMVYIGYDGSNNYNPSLKNRISITRDTSKNQFFLKLNSVTTEDTATYYCARATYYGNYRGFAYWGQGTLVTVSA
VL: DIRMTQTTSSLSASLGDRVTISCRASQDISNYLNWYQQKPDGTVKLLIYYTSRLHSGVPSRFSGSGSGTDYSLTISNLEQEDIATYFCQQGNTLPWTFGGGTKLEIKR
notes: also called anti-DNP parental Ab; parental monospecific antibody
With B1, the binding result in experiment [1] is given as “no binding (tested: 1 µg/mL C4BP)”; in experiment [2] it was “no binding (tested: 1 µg/mL FH)”.

B2: Anti-C4BP F405L LALAPG, Anti-DNP K409R LALAPG (bispecific antibody, human IgG1, kappa, L234A L235A)
heavy 1: EVQLVESGGGLVKPGGSLKLSCAVSGFIFSDYYMYWVRQTPEKRLEWVATISDGGVYTYYPDSMKGRFTISRDNAKNNLYLQMSSLKSEDTAMYYCVRGDYYGNSLDYWGQGTSVTVSSASTKGPSVFPLAPSSKSTSGGTAALGCLVKDYFPEPVTVSWNSGALTSGVHTFPAVLQSSGLYSLSSVVTVPSSSLGTQTYICNVNHKPSNTKVDKRVEPKSCDKTHTCPPCPAPEAAGGPSVFLFPPKPKDTLMISRTPEVTCVVVDVSHEDPEVKFNWYVDGVEVHNAKTKPREEQYNSTYRVVSVLTVLHQDWLNGKEYKCKVSNKALGAPIEKTISKAKGQPREPQVYTLPPSREEMTKNQVSLTCLVKGFYPSDIAVEWESNGQPENNYKTTPPVLDSDGSFLLYSKLTVDKSRWQQGNVFSCSVMHEALHNHYTQKSLSLSPGK
light 1: DVVMTQTPLTLSITIGQPASISCKSSQSLLDGDGKTYLNWLLQRPGQSPKRLIYLVSKLDSGVPDRFTGSGSGTDFTLKISRVEAEDLGVYYCCQGTHFPWTFGRGTKLEIKRTVAAPSVFIFPPSDEQLKSGTASVVCLLNNFYPREAKVQWKVDNALQSGNSQESVTEQDSKDSTYSLSSTLTLSKADYEKHKVYACEVTHQGLSSPVTKSFNRGEC
heavy 2: DVRLQESGPGLVKPSQSLSLTCSVTGYSITNSYYWNWIRQFPGNKLEWMVYIGYDGSNNYNPSLKNRISITRDTSKNQFFLKLNSVTTEDTATYYCARATYYGNYRGFAYWGQGTLVTVSAASTKGPSVFPLAPSSKSTSGGTAALGCLVKDYFPEPVTVSWNSGALTSGVHTFPAVLQSSGLYSLSSVVTVPSSSLGTQTYICNVNHKPSNTKVDKRVEPKSCDKTHTCPPCPAPEAAGGPSVFLFPPKPKDTLMISRTPEVTCVVVDVSHEDPEVKFNWYVDGVEVHNAKTKPREEQYNSTYRVVSVLTVLHQDWLNGKEYKCKVSNKALGAPIEKTISKAKGQPREPQVYTLPPSREEMTKNQVSLTCLVKGFYPSDIAVEWESNGQPENNYKTTPPVLDSDGSFFLYSRLTVDKSRWQQGNVFSCSVMHEALHNHYTQKSLSLSPGK
light 2: DIRMTQTTSSLSASLGDRVTISCRASQDISNYLNWYQQKPDGTVKLLIYYTSRLHSGVPSRFSGSGSGTDYSLTISNLEQEDIATYFCQQGNTLPWTFGGGTKLEIKRTVAAPSVFIFPPSDEQLKSGTASVVCLLNNFYPREAKVQWKVDNALQSGNSQESVTEQDSKDSTYSLSSTLTLSKADYEKHKVYACEVTHQGLSSPVTKSFNRGEC
notes: Made by controlled Fab-arm exchange; also called anti-C4BP x anti-DNP
For the molecule B2, the binding result in experiment [3] was “binds”.

B3: Anti-FH F405L LALAPG, Anti-biotin K409R LALAPG (bispecific antibody, human IgG1, kappa, L234A L235A)
heavy 1: EVQLQQSGPELVKPGASVKISCKASGYSFTGYFIHWVKQSHVKSLEWFGRINPYNGATDYNQNFKDKAILTIDESSSTAYMEIHSLTSDDSAVYYCARGLFLDYWGQGTTLTVSSASTKGPSVFPLAPSSKSTSGGTAALGCLVKDYFPEPVTVSWNSGALTSGVHTFPAVLQSSGLYSLSSVVTVPSSSLGTQTYICNVNHKPSNTKVDKRVEPKSCDKTHTCPPCPAPEAAGGPSVFLFPPKPKDTLMISRTPEVTCVVVDVSHEDPEVKFNWYVDGVEVHNAKTKPREEQYNSTYRVVSVLTVLHQDWLNGKEYKCKVSNKALGAPIEKTISKAKGQPREPQVYTLPPSREEMTKNQVSLTCLVKGFYPSDIAVEWESNGQPENNYKTTPPVLDSDGSFLLYSKLTVDKSRWQQGNVFSCSVMHEALHNHYTQKSLSLSPGK
light 1: DILMTQSPSSMSVSLGDTVSITCHASQGITSNIGWLQQKPGKSFKGLIYHGTNLEDGVPSRFSGSGSGADYSLTISSLESEDFADYYCVQYAQFPWTFGGGTKLEIKRTVAAPSVFIFPPSDEQLKSGTASVVCLLNNFYPREAKVQWKVDNALQSGNSQESVTEQDSKDSTYSLSSTLTLSKADYEKHKVYACEVTHQGLSSPVTKSFNRGEC
heavy 2: QVKLQESGPGLVAPSQSLSITCTVSGFSLTAYGVDWVRQPPGKGLEWLGVIWGGGRTNYNSGLMSRLSIRKDNSKSQVFLTMNSLQTDDTAKYYCVKHTNWDGGFAYWGQGTTVTVSSASTKGPSVFPLAPSSKSTSGGTAALGCLVKDYFPEPVTVSWNSGALTSGVHTFPAVLQSSGLYSLSSVVTVPSSSLGTQTYICNVNHKPSNTKVDKRVEPKSCDKTHTCPPCPAPEAAGGPSVFLFPPKPKDTLMISRTPEVTCVVVDVSHEDPEVKFNWYVDGVEVHNAKTKPREEQYNSTYRVVSVLTVLHQDWLNGKEYKCKVSNKALGAPIEKTISKAKGQPREPQVYTLPPSREEMTKNQVSLTCLVKGFYPSDIAVEWESNGQPENNYKTTPPVLDSDGSFFLYSRLTVDKSRWQQGNVFSCSVMHEALHNHYTQKSLSLSPGK
light 2: DVVMTQSPLSLPVSLGDQASISCRSGQGLVYSNGDTYLHWYLQKPGQSPKLLIYKVSNRFSGVPDRFSGSGSGTDFTLKISRVEAEDLGVYFCSQSTHFPFTFGSGTKLEIKRTVAAPSVFIFPPSDEQLKSGTASVVCLLNNFYPREAKVQWKVDNALQSGNSQESVTEQDSKDSTYSLSSTLTLSKADYEKHKVYACEVTHQGLSSPVTKSFNRGEC
notes: Made by controlled Fab-arm exchange; also called anti-FH x anti-biotin
Take B3: the binding result in experiment [4] is “binds”.
